Reference: US20140065163A1 (MERCK SERONO S A, published 2014)

T1: macaca GM-CSF (Macaca mulatta (identical in Macaca …, UniProt Q0MUT8 18-144 (Chlorocebus aethiops entry), limits assumed))
T1 chain: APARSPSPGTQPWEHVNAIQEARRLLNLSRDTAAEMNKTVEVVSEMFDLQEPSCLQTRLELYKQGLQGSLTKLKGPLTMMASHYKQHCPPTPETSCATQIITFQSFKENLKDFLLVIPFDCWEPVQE


Legend:
human GM-CSF I117 [1] = target: T2, human GM-CSF I117 (human, UniProt P04141 18-144); assay: cell-based or functional assay
Target sequence in this assay (P04141 18-144 limits assumed): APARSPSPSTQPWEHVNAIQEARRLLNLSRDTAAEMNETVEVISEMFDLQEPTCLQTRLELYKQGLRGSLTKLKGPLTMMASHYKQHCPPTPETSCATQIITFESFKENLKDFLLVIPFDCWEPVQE

human GM-CSF T117 [2] = target: T3, human GM-CSF T117 (human, UniProt P04141 18-144); assay: cell-based or functional assay
Target sequence in this assay (P04141 18-144 I117T limits assumed): as the sequence (P04141 18-144 limits assumed) above, with I100T counted along it

macaca GM-CSF [3] = target: T1, macaca GM-CSF; assay: cell-based or functional assay
human GM-CSF I117 [4] = target: T2, human GM-CSF I117; assay: KinExA, affinity in solution
Protocol: (§1) The 4K21 and reference antibodies were incubated at concentration below the expected Kd with serial dilutions of human GM-CSF I117 or T117, or macaca GM-CSF up to equilibrium. The remaining free antibody was measured in a Kinetic exclusion assay with the KinExA® instrument. Kd was calculated by fitting the curve of the signal obtained versus the GM-CSF concentrations. The average of two experiments using different IgG concentrations was calculated.

human GM-CSF T117 [5] = target: T3, human GM-CSF T117; assay: KinExA, affinity in solution
Protocol: as §1

macaca GM-CSF [6] = target: T1, macaca GM-CSF; assay: KinExA, affinity in solution
Protocol: as §1

human GM-CSF A117 mutant = target: T4, human GM-CSF A117 mutant (human, UniProt P04141 18-144); assay: competition ELISA: antibody on coated wild-type human GM-CSF, competitor soluble human GM-CSF A117; single condition, competitor concentration not shown
T4 construct: also called hGM-CSF A117; A117 protein

Fold improvement of 4K21 H93Y alone on I117 (IC50, TF-1 proliferation) (human GM-CSF I117 [1]) [fold] | Fold improvement of humanized parental 4K21 on I117 (IC50, TF-1 proliferation) (human GM-CSF I117 [1]) [fold] | IC50, inhibition of GM-CSF induced TF-1 proliferation (32 pM GM-CSF) (human GM-CSF I117 [1]) [pM] | Fold human T117/I117 (IC50, TF-1 proliferation) (human GM-CSF T117 [2]) [fold] | Fold improvement of 4K21 H93Y alone on T117 (IC50, TF-1 proliferation) (human GM-CSF T117 [2]) [fold] | Fold improvement of humanized parental 4K21 on T117 (IC50, TF-1 proliferation) (human GM-CSF T117 [2]) [fold] | IC50, inhibition of GM-CSF induced TF-1 proliferation (32 pM GM-CSF) (human GM-CSF T117 [2]) [pM] | Fold improvement of 4K21 H93Y alone on macaca (IC50, TF-1 proliferation) (macaca GM-CSF [3]) [fold] | Fold improvement of humanized parental 4K21 on macaca (IC50, TF-1 proliferation) (macaca GM-CSF [3]) [fold] | Fold macaca/human I117 (IC50, TF-1 proliferation) (macaca GM-CSF [3]) [fold] | IC50, inhibition of GM-CSF induced TF-1 proliferation (32 pM GM-CSF) (macaca GM-CSF [3]) [pM] | Kd (human GM-CSF I117 [4]) [pM] | Kd (human GM-CSF T117 [5]) [pM] | Kd (macaca GM-CSF [6]) [pM] | binding result (human GM-CSF A117 mutant) | Binder
0.2 | 0.9 | 130 | 10.8 | 0.1 | 1 | 1410 | 0.1 | 0.7 | 9.3 | 1220 | 17 | 174 | 104 |  | anti-GM-CSF 4K21 hIgG1K antibody (MSB0010259), recombinant chimeric 4K21 (antibody, V domains shown, Murine variable domains fused to human constant IgG1 heavy chain and kappa light chain domains) VH: EVQLVESGGGLVKSGGSLKLSCAASGFAFSAYDMSWVRQTPEKRLELVAYISSGGSSFYYPDTVKGRFTISRDNAKNTLYLQMSSLKSEDTAMYYCTRHLGFDYWGQGTTLTVSS VL: DVVMTQTPLSLPVSLGDQASISCRSSQSLVNSNGNTYLHWFLQKPGQSPKLLIYKVSNRFSGVPDRFSGSGSGTDFTLKISRVEAEDLGVYFCSQSTHVPPTFGGGTKLEIK
1.6 | 6.7 | 18 | 1 | 9.5 | 77 | 18 | 1.8 | 15 | 3 | 54 |  |  |  | binds | MSB0010599 4K21 (4K21 hVH S55R-T62S hVL N28I-H34S-N53R-H93Y) (antibody, V domains shown, IgG) VH: EVQLVESGGGLVQPGGSLRLSCAASGFAFSAYDMSWVRQAPGKRLELVAYISSGGRSFYYPDSVKGRFTISRDNAKNSLYLQMNSLRAEDTAVYYCTRHLGFDYWGQGTLVTVSS VL: DIVMTQSPLSLPVTPGEPASISCRSSQSLVNSIGNTYLSWYLQKPGQSPQLLIYKVSRRFSGVPDRFSGSGSGTDFTLKISRVEAEDVGVYYCSQSTYVPPTFGQGTKVEIK
0.9 | 3.6 | 33 | 1.4 | 3.6 | 30 | 47 | 2.6 | 21 | 1.1 | 37 |  |  |  |  | MSB0010600 4K21 (4K21 hVH S55R-T62S hVL S27eY-N28I-H34S-N53R-H93Y) (antibody, V domains shown) VH: EVQLVESGGGLVQPGGSLRLSCAASGFAFSAYDMSWVRQAPGKRLELVAYISSGGRSFYYPDSVKGRFTISRDNAKNSLYLQMNSLRAEDTAVYYCTRHLGFDYWGQGTLVTVSS VL: DIVMTQSPLSLPVTPGEPASISCRSSQSLVNYIGNTYLSWYLQKPGQSPQLLIYKVSRRFSGVPDRFSGSGSGTDFTLKISRVEAEDVGVYYCSQSTYVPPTFGQGTKVEIK
